In article PMC6171537 (Biochemistry and Biophysics Reports, 2018):

Biological target: the molecule itself
Assay: SEC-MALS

B1: LOV-HK (blue light-activated histidine kinase from Brucella abortus), construct 15-489 (enzyme)
chain: MALSQATDPFRAAVEFTLMPMLITNPHLPDNPIVFANPAFLKLTGYEADEVMGRNCRFLQGHGTDPAHVRAIKSAIAAEKPIDIDIINYKKSGEAFWNRLHISPVHNANGRLQHFVSSQLDVTLELSRLVELEKERKTLSIETARSKDQLDYIVEVANIGFWTREFYSGKMTCSAECRRIYGFTPDEPVHFDTILDLVVLEDRMTVVQKAHQAVTGEPYSIEYRIVTRLGETRWLETRAKALTGENPLVLGIVQDVTERKKAEANKALVSREIAHRFKNSMAMVQSIANQTLRNTYDPEQANRLFSERLRALSQAHDMLLKENWAGATIQQICATALAPFNSTFANRIHMSGPHLLVSDRVTVALSLAFYELATNAVKYGALSNEKGVINITWAIMEDKGEKKFHMRWAESRGPEVMQPARRGFGQRLLHSVLAEELKAKCDVEFAASGLLIDVLAPITPEVFPGMGHNVPEQRIA
notes: also called pET-24a-LOVHK-15-489
B1 was tested, and the “stoichiometry N” value was 2.
